The target of test [1] is T1, full-length mouse NLRP3 (FLAG-mScarlet tag removed), double ring cage (mouse), Q8R4B8.
T1 chain: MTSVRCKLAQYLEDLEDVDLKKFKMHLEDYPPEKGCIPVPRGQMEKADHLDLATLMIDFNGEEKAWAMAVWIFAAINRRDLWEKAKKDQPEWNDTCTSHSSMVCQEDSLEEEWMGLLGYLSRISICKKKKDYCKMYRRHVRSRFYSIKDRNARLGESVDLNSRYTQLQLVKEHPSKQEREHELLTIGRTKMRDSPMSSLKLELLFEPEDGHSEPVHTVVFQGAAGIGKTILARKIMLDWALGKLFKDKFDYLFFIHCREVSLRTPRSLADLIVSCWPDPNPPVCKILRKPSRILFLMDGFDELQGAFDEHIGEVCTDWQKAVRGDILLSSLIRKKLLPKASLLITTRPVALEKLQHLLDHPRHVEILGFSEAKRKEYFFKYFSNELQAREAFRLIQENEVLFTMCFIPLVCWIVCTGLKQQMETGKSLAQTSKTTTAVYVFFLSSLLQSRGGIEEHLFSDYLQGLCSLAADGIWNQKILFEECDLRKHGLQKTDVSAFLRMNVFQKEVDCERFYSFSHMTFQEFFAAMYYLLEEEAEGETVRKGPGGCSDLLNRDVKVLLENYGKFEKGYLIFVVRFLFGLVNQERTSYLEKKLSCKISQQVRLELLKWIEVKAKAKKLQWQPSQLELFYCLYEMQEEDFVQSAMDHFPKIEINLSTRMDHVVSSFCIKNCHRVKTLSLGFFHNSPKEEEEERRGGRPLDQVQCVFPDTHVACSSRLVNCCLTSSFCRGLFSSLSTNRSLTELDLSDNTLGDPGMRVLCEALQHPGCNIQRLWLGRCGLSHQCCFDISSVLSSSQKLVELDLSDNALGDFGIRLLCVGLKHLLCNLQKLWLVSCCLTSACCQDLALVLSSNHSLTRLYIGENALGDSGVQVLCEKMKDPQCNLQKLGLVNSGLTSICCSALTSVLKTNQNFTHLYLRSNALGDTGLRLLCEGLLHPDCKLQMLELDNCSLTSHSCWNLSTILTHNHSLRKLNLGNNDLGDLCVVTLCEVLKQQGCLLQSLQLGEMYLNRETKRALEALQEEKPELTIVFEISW
Kind of test: cryo-EM structure. The conditions noted are these: remark: other sources report otherwise.

Test [2] addresses T1, full-length mouse NLRP3 (FLAG-mScarlet …). Put plainly: cryo-EM structure. The conditions noted are these: remark: other sources report otherwise.

Several values for one entry are separate records, joined by “and”; a condition that tells them apart may be missing. Equal values may be shown once.

B1: full-length mouse NLRP3 (FLAG-mScarlet tag removed), double ring cage, Q8R4B8 1-1033 (natural protein)
chain: MTSVRCKLAQYLEDLEDVDLKKFKMHLEDYPPEKGCIPVPRGQMEKADHLDLATLMIDFNGEEKAWAMAVWIFAAINRRDLWEKAKKDQPEWNDTCTSHSSMVCQEDSLEEEWMGLLGYLSRISICKKKKDYCKMYRRHVRSRFYSIKDRNARLGESVDLNSRYTQLQLVKEHPSKQEREHELLTIGRTKMRDSPMSSLKLELLFEPEDGHSEPVHTVVFQGAAGIGKTILARKIMLDWALGKLFKDKFDYLFFIHCREVSLRTPRSLADLIVSCWPDPNPPVCKILRKPSRILFLMDGFDELQGAFDEHIGEVCTDWQKAVRGDILLSSLIRKKLLPKASLLITTRPVALEKLQHLLDHPRHVEILGFSEAKRKEYFFKYFSNELQAREAFRLIQENEVLFTMCFIPLVCWIVCTGLKQQMETGKSLAQTSKTTTAVYVFFLSSLLQSRGGIEEHLFSDYLQGLCSLAADGIWNQKILFEECDLRKHGLQKTDVSAFLRMNVFQKEVDCERFYSFSHMTFQEFFAAMYYLLEEEAEGETVRKGPGGCSDLLNRDVKVLLENYGKFEKGYLIFVVRFLFGLVNQERTSYLEKKLSCKISQQVRLELLKWIEVKAKAKKLQWQPSQLELFYCLYEMQEEDFVQSAMDHFPKIEINLSTRMDHVVSSFCIKNCHRVKTLSLGFFHNSPKEEEEERRGGRPLDQVQCVFPDTHVACSSRLVNCCLTSSFCRGLFSSLSTNRSLTELDLSDNTLGDPGMRVLCEALQHPGCNIQRLWLGRCGLSHQCCFDISSVLSSSQKLVELDLSDNALGDFGIRLLCVGLKHLLCNLQKLWLVSCCLTSACCQDLALVLSSNHSLTRLYIGENALGDSGVQVLCEKMKDPQCNLQKLGLVNSGLTSICCSALTSVLKTNQNFTHLYLRSNALGDTGLRLLCEGLLHPDCKLQMLELDNCSLTSHSCWNLSTILTHNHSLRKLNLGNNDLGDLCVVTLCEVLKQQGCLLQSLQLGEMYLNRETKRALEALQEEKPELTIVFEISW
By stoichiometry N is commonly meant a count of units in the complex or per binding partner. B1: the stoichiometry N in test [1] is 12 and 14 and 16; in test [2] it was 12.

(Values after article doi:10.1101/2021.09.12.459968.)
